This note sets out measurements from US20130101549A1 (Biogen, published 2013).

For orientation: EC50 means the concentration at which the effect is half-maximal. A higher EC50 goes with weaker potency.

For assay [1], the target named is T1, human LTβR-Ig (human, UniProt P36941 31-227).
T1 construct: Expressed and purified in house; also called hLTbR-Ig; human LTBR-Ig
Nature of the assay: ELISA, huLTBR-Ig coated at 0.2 ug/ml, HRP anti-Flag mAb; the number is C of the printed 4-P fit (A 0.164, B 0.898, D 1.528, R^2 0.999). (In general: ELISA stands for enzyme-linked immunosorbent assay.)

In assay [2] the target is T1, human LTβR-Ig. Nature of the assay: ELISA, huLTBR-Ig coated at 2 ug/ml, HRP anti-Flag mAb; the number is C of the printed 4-P fit y=(A-D)/(1+(x/C)^B)+D (A 0.103, B 0.763, D 1.654, R^2 0.999).
The target of assay [3] is T2, murine HVEM-Ig (mouse, UniProt Q80WM9 39-210).
T2 construct: Expressed and purified in house
T2 sequence (looked up): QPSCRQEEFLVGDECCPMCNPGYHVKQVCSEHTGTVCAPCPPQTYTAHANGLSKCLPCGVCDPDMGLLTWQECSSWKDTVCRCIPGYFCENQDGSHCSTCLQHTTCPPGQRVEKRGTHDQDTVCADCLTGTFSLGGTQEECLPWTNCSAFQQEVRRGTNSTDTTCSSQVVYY
The assay can be described thus: ELISA, muHVEM-Ig coated at 2 ug/ml, HRP anti-Flag mAb; the number is C of the printed 4-P fit y=(A-D)/(1+(x/C)^B)+D (A 0.143, B 0.757, D 1.559, R^2 0.999).

In assay [4] the target is T2, murine HVEM-Ig. Nature of the assay: ELISA, muHVEM-Ig coated at 0.2 ug/ml, HRP anti-Flag mAb; the number is C of the printed 4-P fit (A 0.027, B 0.575, D 1.071, R^2 0.994).
Assay [5] concerns the target T3, human HVEM-Ig (human, UniProt Q92956 39-202).
T3 construct: Expressed and purified in house; also called HVEM-Fc; Herpes virus entry mediator-Ig
T3 sequence (looked up): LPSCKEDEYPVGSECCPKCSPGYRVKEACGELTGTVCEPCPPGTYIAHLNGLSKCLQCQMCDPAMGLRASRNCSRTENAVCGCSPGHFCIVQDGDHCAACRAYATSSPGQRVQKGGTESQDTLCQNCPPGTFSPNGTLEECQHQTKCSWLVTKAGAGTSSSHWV
The assay can be described thus: ELISA, huHVEM-Ig coated at 2 ug/ml, HRP anti-Flag mAb; the number is C of the printed 4-P fit y=(A-D)/(1+(x/C)^B)+D (A 0.117, B 0.801, D 1.551, R^2 0.998).

Assay [6] addresses T4, murine LTβR-Ig (mouse, UniProt P50284 31-223).
T4 construct: Expressed and purified in house; also called mLTbR; murine LTBR-Ig
Nature of the assay: ELISA, muLTBR-Ig coated at 2 ug/ml, HRP anti-Flag mAb; the number is C of the printed 4-P fit y=(A-D)/(1+(x/C)^B)+D (A 0.125, B 0.915, D 1.615, R^2 0.999). As to the method:
(§1) Human and murine ErbB2-Fc were obtained from R&D Systems. Wells of 96-well plates were coated with 2 ug/ml or 0.2 ug/ml of human or murine HER2-Fc by incubation overnight at 4-8° C. with either of these six proteins (80 ul/well of a 0.2 or 2 ug/ml solution in PBS). Wells were emptied, filled completely with a solution of PBS with 1% BSA (blocking buffer) and incubated at room temperature for 1 hour. Wells were emptied, washed twice PBS containing 0.05% Tween 20 (PBST) and filled with the samples (80 ul/well of 3× dilution series of the standard and supernatants in blocking buffer) prepared in another 96-well plate. […] After 1-hour incubation, the wells were emptied and filled with a solution of HRP substrate prepared freshly. The color was left to develop for 3 minutes and was stopped by addition of an equal volume of 1N H₂SO₄. Absorbance was measured at 450 nm using a Plate Reader (SpectraMax, Molecular Devices). The data was processed and graphs were created using SoftMax Pro software.
(§2) Human and murine LTBR-Ig were expressed and purified in house.

Assay [7] has as its target T3, human HVEM-Ig. Nature of the assay: ELISA, huHVEM-Ig coated at 0.2 ug/ml, HRP anti-Flag mAb; the number is C of the printed 4-P fit (A 0.22, B 1.302, D 1.232, R^2 0.998). How it is done: as §1
Human and murine HVEM-Ig were expressed and purified in house.

Assay [8] deals with T4, murine LTβR-Ig. The assay can be described thus: ELISA, muLTBR-Ig coated at 0.2 ug/ml, HRP anti-Flag mAb; the number is C of the printed 4-P fit (A 0.044, B 0.606, D 1.329, R^2 0.999); the points end at OD about 1.1 at 10000 ng/ml, upper plateau not reached. How it is done:
as §1, §2

Assay [9] has as its target T1, human LTβR-Ig. Nature of the assay: ELISA on LTbR-Ig, dilutions of medium of transfected CHO cells.

T1 sequence (P36941 31-227): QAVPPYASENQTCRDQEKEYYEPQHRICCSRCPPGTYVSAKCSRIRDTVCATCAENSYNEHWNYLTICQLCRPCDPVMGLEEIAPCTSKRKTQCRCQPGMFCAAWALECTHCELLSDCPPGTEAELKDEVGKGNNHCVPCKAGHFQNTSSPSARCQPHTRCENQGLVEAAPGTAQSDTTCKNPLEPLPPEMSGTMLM
T4 sequence (P50284 31-223): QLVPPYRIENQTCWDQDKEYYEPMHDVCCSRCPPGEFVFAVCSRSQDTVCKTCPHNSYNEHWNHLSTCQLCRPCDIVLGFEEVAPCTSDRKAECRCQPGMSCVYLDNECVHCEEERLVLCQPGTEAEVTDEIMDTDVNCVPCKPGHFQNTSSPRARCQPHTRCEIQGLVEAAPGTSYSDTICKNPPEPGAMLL

B1: huLight (ligand, human, UniProt O43557 66-240, looked up)
ligand chain: GEMVTRLPDGPAGSWEQLIQERRSHEVNPAAHLTGANSSLTGSGGPLLWETQLGLAFLRGLSYHDGALVVTKAGYYYIYSKVQLGGVGCPLGLASTITHGLYKRTPRYPEELELLVSQQSPCGRATSSSRVWWDSSFLGGVVHLEAGEKVVVRVLDERLVRLRDGTRSYFGAFMV
notes: soluble, Flag-tagged; also called Flag-huLIGHT (control)
Take B1: the EC50 with human LTβR-Ig [1] was 1.33 ng/mL; with human LTβR-Ig [2], 2.1 ng/mL; with murine HVEM-Ig [3] it was 1.34 ng/mL; in the assay with murine HVEM-Ig [4], 18.6 ng/mL; with human HVEM-Ig [5], 1.3 ng/mL; with murine LTβR-Ig [6] it was 2.39 ng/mL. For the same molecule, the EC50 with human HVEM-Ig [7] is 1.27 ng/mL; with murine LTβR-Ig [8], 810 ng/mL.

B2: anti-IGFR C06 Fab-hLIGHT fusion protein (C06-hLIGHT) (other)
heavy: EVQLLESGGGLVQPGGSLRLSCAASGFTFSIYRMQWVRQAPGKGLEWVSGISPSGGTTWYADSVKGRFTISRDNSKNTLYLQMNSLRAEDTAVYYCARWSGGSGYAFDIWGQGTMVTVSSASTKGPSVFPLAPSSKSTSGGTAALGCLVKDYFPEPVTVSWNSGALTSGVHTFPAVLQSSGLYSLSSVVTVPSSSLGTQTYICNVNHKPSNTKVDKKVEPKSCDKGGGGSGGGGSGGGGSGGGGSNPAAHLTGANSSLTGSGGPLLWETQLGLAFLRGLSYHDGALVVTKAGYYYIYSKVQLGGVGCPLGLASTITHGLYKRTPRYPEELELLVSQQSPCGRATSSSRVWWDSSFLGGVVHLEAGEEVVVRVLDERLVRLRDGTRSYFGAFMV
light: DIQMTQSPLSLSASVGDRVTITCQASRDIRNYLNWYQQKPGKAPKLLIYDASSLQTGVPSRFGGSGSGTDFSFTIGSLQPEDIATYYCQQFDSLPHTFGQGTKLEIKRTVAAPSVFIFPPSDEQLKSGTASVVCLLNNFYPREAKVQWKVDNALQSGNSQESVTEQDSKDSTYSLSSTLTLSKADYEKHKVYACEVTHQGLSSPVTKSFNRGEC
notes: Tested as culture medium of transiently transfected CHO cells; not measured for this fusion; also called pBIIBC06-256
B2: the binding result with human LTβR-Ig [9] is “binds”.
